From the DeepSol protein solubility set

Test: soluble on expression in E. coli; label from the status in PepcDB or PDB records

Question: For “MVDLGSDRLPVAVIGAGPVGLAAAAHLAERSVPFVVLEAGDAAATAVQAWSHIQLFSPWEFNTDPAARRLLAAAGWEEPDASALPTGGDLVKQYLQPLAELPALASHIRYGAEVTAISRLGIDRLRTADRDAAPFVLRLADGEEVLARAVIDASGTWRQPNHVGANGLPAHGEKDAAAWINHGLPDVFGADRDQHAGRHTVVVGAGHSAANTLLALAELADTAPGTTITWAIRGADPAASFGGGSDDELPARGAIGSGLKMLVETGRVTLAANFRTHAVRRLGDDPSRDQVELVSRALDGTERSVTADRVVAATGFRPDYRIVDELRLELDPIMSAPRALAPLIDPNQHSCGTVTPHGYRELAHPEPGYYAVGMKSYGRAPTFLMLTGYEQVRSIAAALAGDLEAAQSVELQLPETGVCSVTAGGEALALRLGLTKDQHEQLLHVTAKHLGTSATASDAVLSAATELGIDQTAALQLAAYAADMFDAPGAPGCLEHHHHHH”, which “soluble on expression in E. coli” value is on record?
Answer: The value was “not soluble”.

Question: Which “soluble on expression in E. coli” value does the source give for “MVDSRAFKLKEGREREVDMTSETEKRIIALEETIAHQAKTIEELSDQLAEQWKVVEQTRAKLDRLTERFLSLEEQSLDAPAITRPPHY” here?
Answer: The value was “not soluble”.

Question: For “MVDTHKLADDVLQLLDNRIEDNYRVCVILVGSPGSGKSTIAEELCQIINEKYHTFLSEHPNVIEVNDRLKPMVNLVDSLKTLQPNKVAEMIENQGLFKDHVEDVNFQPVKYSALTSNNEECTAVVARGGTANAIRIAAVDNPVNVNKLAQDSINIAQIVPMDGFHLSRRCLDLFKDPQTAHKRRGSPSTFDSNNFLQLCKILAKTSLCKVSSHHKFYSTSSVFEKLSKTFSQTIPDIFVPGFNHALKDPTPDQYCISKFTRIVILEGLYLLYDQENWKKIYKTLADTGALLVYKIDIDYEATEERVAKRHLQSGLVTTIAEGREKFRSNDLLNGRDIDNHLIKVDNIVHIRNDHHHHHH”, which “soluble on expression in E. coli” value is on record?
Answer: The value was “soluble”.

Question: Which “soluble on expression in E. coli” value does the source give for “MVEIDPFEMAVKQLERAAQYMDISEEALEWLKKPMRIVEVSVPIEMDDGSVKVFTGFRVQHNWARGPTKGGIRWHPAETLSTVKALATWMTWKVAVVDLPYGGGKGGIIVNPKELSEREQERLARAYIRAVYDVIGPWTDIPAPDVYTNPKIMGWMMDEYETIMRRKGPAFGVITGKPLSIGGSLGRGTATAQGAIFTIREAAKALGIDLKGKKIAVQGYGNAGYYTAKLAKEQLGMTVVAVSDSRGGIYNPDGLDPDEVLKWKREHGSVKDFPGATNITNEELLELEVDVLAPAAIEEVITEKNADNIKAKIVAEVANGPVTPEADDILREKGILQIPDFLCNAGGVTVSYFEWVQNINGYYWTEEEVREKLDKKMTKAFWEVYNTHKDKNIHMRDAAYVVAVSRVYQAMKDRGWVKK” here?
Answer: Its value is “soluble”.

Question: Which “soluble on expression in E. coli” value does the source give for “MVEIIDTTFRDAHQSLIATRMSTKDMLPIAEKMDKIGFYSMEVWGGATFDVSLRFLREDPWERLKLLREHIRKTKLQMLLRGQNLVGYRHYPDDVVEKFVELAYKNGIDIFRVFDALNDVRNMKTAIKKAKEIGAEVQGAICYTTGPIFTIDYYLQKVDELIELDVDYITIKDMAGLADPQTAYELVKEIKERYGIKVNFHTHATSGLAVATYLKAVEAGVDYIDTSIYPLAGGTAQPAVQTMYYALPKGKRPKLNIKLIHEISKYLTNLLEKKYDHLLTKKAIHGDPNVLIHQIPGGMYSNLIKQLSELKALDKLEEVLEEVPRVREDLGYPPLVTPTSQIVGVQAVLNVLFGRYKQVTKETKDYVRGLYGRPPGKIKEEIKKLILGDEEPINVRPADLLEPMLEKAKKELKEKGYLEKEEDVVTYCLFPQVALEFFELRRQGRLRPVEEKPKGKPIKIYINGKEFEVFVEGIEFEPPKPKPQVQAIPSQPPKREVVAPSGSVVSAPMPGKVLRVLVRVGDRVRVGQGLLVLEAMKMENEIPSPRDGVVKRILVKEGEAVDTGQPLIELE” here?
Answer: Its value is “soluble”.

Question: Which “soluble on expression in E. coli” value does the source give for “MVEKFDTIYDYYVDKGYEPSKKRDIIAVFRVTPAEGYTIEQAAGAVAAESSTGTWTTLYPWYEQERWADLSAKAYDFHDMGDGSWIVRIAYPFHAFEEANLPGLLASIAGNIFGMKRVKGLRLEDLYFPEKLIREFDGPAFGIEGVRKMLEIKDRPIYGVVPKPKVGYSPEEFEKLAYDLLSNGADYMKDDENLTSPWYNRFEERAEIMAKIIDKVENETGEKKTWFANITADLLEMEQRLEVLADLGLKHAMVDVVITGWGALRYIRDLAADYGLAIHGHRAMHAAFTRNPYHGISMFVLAKLYRLIGIDQLHVGTAGAGKLEGGKWDVIQNARILRESHYKPDENDVFHLEQKFYSIKAAFPTSSGGLHPGNIQPVIEALGTDIVLQLGGGTLGHPDGPAAGARAVRQAIDAIMQGIPLDEYAKTHKELARALEKWGHVTPV” here?
Answer: Its value is “soluble”.

Question: For “MVENLKQLQERVAVSDGRAKADLVIKNGRIINVFSGEIMDGDIAIKNGYIAGIGSFPDAEKIIDAAGAFIAPGFIDAHVHVESAMVTPAEFARVLLPNGVTTIVTDPHEIANVAGEKGIEFMLEDAKGAPLDMFVMLPSSVPATEGEHNGETLHAEKLHPLYRHEKVIGLAEVMDFPSVAKGSDDILRKIIDAKKEGGRIDGHGAGLTSADLNNYLAVGIRTDHESTTAKEATDRLRAGMFVMLREGTVGRDLLQTIPAVSEKNSHRFCFCTDDKLINDLITEGSINYNIKLAIKNGIDPITAIQMATINAANCHNLPYLGAVAAGYQADIVFLTDIETVEISKVLKNGEVVVDNGVRNEAAFKQQAAVPFVSPPINHHVHLQDLALPLTKETCYVIGMQPNSLFTEKRIEQVTIQGGKFVPTVENDLLKMAVVERHHDTGCVGVGIVKGFGLTEGAIATTVAHDSHNIVAVGVSDEAMKAAIDHITQTGGGIAVVNGAGQVLHDLALPIAGLLSDKSYEEVENDLAGLLNAFKQISTANGFDPFLTLSFLTLPVIPELKLTDQGLFDFATFQIISNEVN”, which “soluble on expression in E. coli” value is on record?
Answer: The value was “not soluble”.

Question: For “MVERLTIIRGVEKFELQTKTARWVLAKEEGYSPVQMLVSAIGACGGYVYQSVLENSHIPFEFEKIEVTYSREVERRAQPLKQVTILFYVTVPEAFQERATRCLKLVSPNCPVIQSLAERITVEETVVFKK”, which “soluble on expression in E. coli” value is on record?
Answer: The value was “not soluble”.

Question: For “MVFKPHRINCRDFTFKIELKEKKILRGRAMLDKIDRKLLALLQQDCTLSLQALAEAVNLTTTPCWKRLKRLEDDGILIGKVALLDPEKIGLGLTAFVLIKTQHHSSEWYCRFVTVVTEMPEVLGVWRMAGEYDYLMRVQVADMKRYDEFYKRLVNSVPGLSDVTSSFAMEQIKYTTSLPIE”, which “soluble on expression in E. coli” value is on record?
Answer: Its value is “not soluble”.

Question: For “MVGHSESSTDAVIEPTSEELLAEQVRVFNKMKGSTNFNRVAEDVYPVEVTKSKLVCEMVVQHQHLNSKGTLHGGQTATLTDVITARAVGVTVKDKGMASVELAVSYLLPVKVGDVLEITAHVLKVGRTMAFTDCEFRRKSDGKMSAKGKHTLAFLPNQPGISVENGTQFLEHHHHHHS”, which “soluble on expression in E. coli” value is on record?
Answer: The value was “soluble”.

Question: For “MVGQVIRKRGAYPEYTVEDVLAVIFLLKEPLGRKQISERLELGEGSVRTLLRKLSHLDIIRSKQRGHFLTLKGKEIRDKLLSMFSEPIGVSVDGYPGIAIVVKNPPEFKSIELRDEAIKFDAKGAMILTVKDNEIVFPEDFRPLKEMYPEVAKKIVDYEDGDAVIITWAETPAKALKSAIHVAYILKKEEITPEILEVVK”, which “soluble on expression in E. coli” value is on record?
Answer: The value was “soluble”.

Question: Which “soluble on expression in E. coli” value does the source give for “MVGTFLGTGASSGVPMLNCSCKVCTSSYSKNKRLRSSFFLESSSGIKLLIDTGPDIRQQLLREKIDRLDLVLYTHEHYDHIMGFDDIKFYTRCAPLNIYARDTAMAHIRNAFPYNFTSKPSLSGKADIIANVIRDFEPFFFKSLKIVPIPLIHGDIISLGYRVGNLAYLTDVKFIPEASYDYLKNLDLLIIDAMRIKPHPAHLNFSEAFCVIKKINPKISYFTHIAHDIMHEEFDYLEKDNIYLAYDGLKIYILEHHHHHH” here?
Answer: Its value is “not soluble”.

Question: With “MVHYKLTYFNARGLAEISRQLFHMAGVEFEDERINEEKFSQLKPTFPSGQVPILCIDGAQFSQSTAIARYLARKFGFVGQTAEEELQADEVVDTFKDFIESFRKFVIAVLSGESEEILKNIREEVIKPAVKTYTAYLKAILEKSSSGYLVGNELTWADLVIADNLTTLINAELLDIENDKLLKEFREKIIETPKLKEWLAKRPETRF” as the sequence, how does the “soluble on expression in E. coli” value read?
Answer: Its value is “not soluble”.

Question: Which “soluble on expression in E. coli” value does the source give for “MVINQNEAHAIQRIDSDEEPTVSVVDVVATVATPHFDEPLKRKWRLKCAEYGTFMASLLDTDFAEHVTAHQVRCDGVRFKVKLRVEEAKGRSPRFEILAMSPEDSSGVQTLL” here?
Answer: The value was “not soluble”.

Question: Which “soluble on expression in E. coli” value does the source give for “MVIPALNEAPTVAKVVEAVLADNPLEVLVIDADSTDATAAEARSAGATVLNWREILDTEPIPGKGESLWRGVAAARGDIVVFVDADLTSFRPGMVNSLVAPFLNDDIHLVKADYVRTFGDHTTGGGRVTELTAKPLLRALFPELSHIRQPLGGEYAIRRSTALAMPFVSGYGVEVGLLIDVATQFGTSSIAQVDLGSRSHNHQSLEALGSMADVVATTILQRFGHDLPVVQREPLGIHLEHHHHHH” here?
Answer: Its value is “not soluble”.

Question: Which “soluble on expression in E. coli” value does the source give for “MVKCMKPGKAVILLQGRYTGKKAVIVKSFDDGTVEKKYGHCLVAGLKKYPSKVIRKDSAKKTAKKSRVKCFFKVINYQHVMPTRYTLDLDLKNVVSADAISSKDKKVTALKEAKAKFEERFKTGKNRWFFTKLRF” here?
Answer: Its value is “not soluble”.

Question: Which “soluble on expression in E. coli” value does the source give for “MVKFTTFLCIIALLLCSTLTHASARLNPTSVYPEENSFKKLEQGEVICEGVGEEECFLIRRTLVAHTDYIYTQNHNP” here?
Answer: The value was “soluble”.

Question: For “MVKIIENKLIDAEPLKDAVLIEGLPGIGHVGRVAAEHIVEEFNGEKVLELYCDDFPPQIVVKNDGTIEYMKNEFYLVKEPVPMVIVLGNTQALSPKGQYVLSEKIVDIAMKYGATKTYTLGGFGIGKISDELKVYVASTSKELSEQHKELGAEFRTDGGSIIGAAGLMLKFSKLKGIEGICLMGETPGYLVDPKSAGNVLEMLSKAIGFEIDMKKLDERAKEMEKFIEKVQMQEQGMQAPQHQDDLSYIG”, which “soluble on expression in E. coli” value is on record?
Answer: The value was “not soluble”.

Question: With “MVKKSEFERGDIVLVGFDPASGHEQQGAGRPALVLSVQAFNQLGMTLVAPITQGGNFARYAGFSVPLHCEEGDVHGVVLVNQVRMMDLHARLAKRIGLAADEVVEEALLRLQAVVE” as the sequence, how does the “soluble on expression in E. coli” value read?
Answer: The value was “soluble”.

Question: Which “soluble on expression in E. coli” value does the source give for “MVKQVGNTEIKENHRASCHCGAVVLELYLPNGIEKPRRCDCSICRRKGAIVGSVPLANIKILKGESELKLYQFNTGTAKHYFCSNCGIYTHHQRRSDPTEYGYNIGCLEGVNPYELGAIEVMDGVNHPADRKKILEHHHHHH” here?
Answer: Its value is “not soluble”.

Question: Which “soluble on expression in E. coli” value does the source give for “MVKSMIAVISDIHSNLEALNAVLNDIKNRGIKKIFCLGDIVGYGANPNECVELIRDLNCLSVVGNHDYGVLGKESLDYFNKYGAIAILWTKKVIKNENLKFLDSLPLIIEENIKGKKVIFSHANPKHPEIWEYLFPDYVDDVFNYGDLIFVGHSHIPFVNSEEGNLLLHEGKIYLDEDKKYLINPGSVGQPRDGINKASYCIFDEKDFKIEIVRVEYDIKKAYEKIVKNRLPEWLGERLFLGR” here?
Answer: Its value is “soluble”.

Question: Which “soluble on expression in E. coli” value does the source give for “MVKVTYDIPTCEDYCALRINAGMSPKTREAAEKGLPNALFTVTLYDKDRLIGMGRVIGDGGTVFQIVDIAVSKSYQGQDYGSLIMEHIMKYIKNVSVESAYVSLIADYPADKLYAKFGFMPTEPDSGGMYIKY” here?
Answer: The value was “soluble”.

Question: With “MVLAALVLVLEGEGLPEPLGLRGFFYGLLREVAPEVHDQGENPFALGFGGREGAAWARVSLLVEGLYARLAPRLYALEGEEVRLGPPFRVRAVLQEGHPWAGVSTYPRLFQGPPSRDLALRFASPTFFRRKGVHYPVPEPRLVLESLLRRLEAFGPLKAPEGVREALLERTTVRSLEGRTLPARTEVDTAGFVGRVVYHLPRATEEEALWLSALGRFAFYSGVGAKTSLGYGRARAESA” as the sequence, how does the “soluble on expression in E. coli” value read?
Answer: Its value is “soluble”.

Question: For “MVLPALPAPPVCDSQNECVGWLGVAYSAVVDVIRAAAHEGVYIEPEARGRLDALREWIYYNYYTERAKRRDRRRRSVCHARTWFCFRKYDYVRRSIWHDTTTNTISVVSAHSVQ”, which “soluble on expression in E. coli” value is on record?
Answer: The value was “soluble”.
